{"source": "patent US12228567B2", "about": "“Colorimetric sensor kit for screening therapeutic agent for neurodegenerative disease, including amyloid shelled-gold nanoparticle, and method for screening therapeutic agent for neurodegenerative disease” (Korea University Research and Business Foundation, priority 2019, dated 2025)", "key": {"Aβ(1-42)": {"molecular_target": "T1, Aβ(1-42) (Homo sapiens, UniProt P05067)", "T1 construct": "can degrade Aβ(1-42)", "T1 sequence (P05067 672-713 limits assumed)": "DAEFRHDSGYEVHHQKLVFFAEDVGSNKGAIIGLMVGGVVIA", "test": "Degradation activity of MMP-9 for the amyloid-gold nanoparticle, Aβ(1-42)", "type": "biochemical", "details": "ASGN made with Aβ(1-42)", "text": "(§1) For investigation of the reactivity of the Amyloid Shelled-Gold Nanoparticle (ASGN), the reactivity of the amyloid-gold nanoparticle with amyloid-degrading proteases (protease XIV and matrix metallopeptidase 9 (MMP-9)) was investigated. As a result, it was confirmed that the composite of the present disclosure can be used not only for drug screening but also for investigation of the activity of an amyloid-degrading enzyme.\n(§2) Therefore, MMP-9 degrades and removes Aβ(1-42) in the Golgi apparatus and the cytoplasm in the neurons of the brain."}, "Aβ(1-40)": {"molecular_target": "Aβ(1-40) (Homo sapiens, UniProt P05067)", "sequence (P05067 672-711 limits assumed)": "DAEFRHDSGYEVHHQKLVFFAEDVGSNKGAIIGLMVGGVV", "test": "Degradation activity of MMP-9 for the amyloid-gold nanoparticle, Aβ(1-40)", "type": "biochemical", "details": "ASGN made with Aβ(1-40)", "text": "as §1, §2"}}, "data": [{"substance": "matrix metallopeptidase 9 [MMP-9]", "values": [{"measurement": "degradation of Aβ(1-42) on the amyloid-gold nanoparticle", "setting": "Aβ(1-42)", "result": "specifically degrades Aβ(1-42) only"}, {"measurement": "degradation of Aβ(1-40) on the amyloid-gold nanoparticle", "setting": "Aβ(1-40)", "result": "cannot degrade"}]}]}
